Test results reported in patent publication US20130005646A1 (Novo Nordisk, published 2013).
Starred links: 1 amine or outer side, 2 acyl side, 3 side chain; linkers in the order of their positions; H or OH if unused. Positions of bridges follow the written chain, without caps; N, C: chain ends. Groups on a side chain read outwards from the residue. No end group written: not given here. *: point of attachment. X1 = (S)‑4‑Carboxy‑4‑(19-carboxynonadecanoylamino)butyryl, O=C(O)CCCCCCCCCCCCCCCCCCC(=O)N[C@@H](CCC(=O)*)C(=O)O; C20 diacid = O=C(O)CCCCCCCCCCCCCCCCCCC(=O)*; C18 diacid = O=C(O)CCCCCCCCCCCCCCCCC(=O)*; γGlu = O=C(O)[C@H](CCC(=O)[*:2])N[*:1]

T1: human amylin 3(a) receptor (human calcitonin receptor + RAMP-3) (human, UniProt P30988 25-474; O60896 24-148)
T1 sequence (looked up) 1: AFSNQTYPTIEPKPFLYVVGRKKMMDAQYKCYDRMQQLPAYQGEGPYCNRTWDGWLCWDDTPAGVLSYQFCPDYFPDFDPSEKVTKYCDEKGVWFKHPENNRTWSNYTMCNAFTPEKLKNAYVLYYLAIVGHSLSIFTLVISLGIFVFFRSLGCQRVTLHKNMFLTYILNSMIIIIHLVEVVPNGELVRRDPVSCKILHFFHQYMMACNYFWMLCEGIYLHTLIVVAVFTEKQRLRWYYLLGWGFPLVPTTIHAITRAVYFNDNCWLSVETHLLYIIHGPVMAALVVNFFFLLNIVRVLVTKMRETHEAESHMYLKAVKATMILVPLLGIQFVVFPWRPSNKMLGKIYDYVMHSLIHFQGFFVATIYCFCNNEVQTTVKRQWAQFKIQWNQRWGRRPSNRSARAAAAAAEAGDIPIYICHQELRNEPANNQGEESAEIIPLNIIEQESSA
T1 sequence (looked up) 2: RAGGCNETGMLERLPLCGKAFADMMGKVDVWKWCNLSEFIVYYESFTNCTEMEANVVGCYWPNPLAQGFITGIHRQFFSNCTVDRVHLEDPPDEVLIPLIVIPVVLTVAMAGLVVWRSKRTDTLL

T2: human calcitonin (a) receptor (human, UniProt P30988 25-474)
T2 sequence (looked up): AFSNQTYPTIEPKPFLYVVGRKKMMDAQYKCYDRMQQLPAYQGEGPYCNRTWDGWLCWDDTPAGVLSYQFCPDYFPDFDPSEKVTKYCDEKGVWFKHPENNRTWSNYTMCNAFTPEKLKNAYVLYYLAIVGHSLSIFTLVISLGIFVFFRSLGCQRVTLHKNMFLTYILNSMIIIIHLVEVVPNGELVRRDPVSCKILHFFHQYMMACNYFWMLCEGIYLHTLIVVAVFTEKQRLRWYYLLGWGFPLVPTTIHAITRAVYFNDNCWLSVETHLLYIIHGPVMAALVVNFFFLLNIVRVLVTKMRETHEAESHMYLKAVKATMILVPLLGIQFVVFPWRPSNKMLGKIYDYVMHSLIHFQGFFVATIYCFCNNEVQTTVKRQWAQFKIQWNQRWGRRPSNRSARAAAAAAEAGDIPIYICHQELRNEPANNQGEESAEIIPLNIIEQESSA


Assays:
[1] = molecular target: T1, human amylin 3(a) receptor (human …); assay: cell-based or functional assay
[2] = molecular target: T2, human calcitonin (a) receptor; assay: cell-based or functional assay

Binder	Amylin receptor human EC50 [1] [nM]	CTa receptor human EC50 [2] [nM]
{C20 diacid-γGlu}-SKCNTATCATQRLAEFLHHSSNNFGPILPPTNVGSHTY-NH2 (disulfide 3-8; SMILES CC[C@H](C)[C@H](NC(=O)[C@@H]1CCCN1C(=O)CNC(=O)[C@H](Cc1ccccc1)NC(=O)[C@H](CC(N)=O)NC(=O)[C@H](CC(N)=O)NC(=O)[C@H](CO)NC(=O)[C@H](CO)NC(=O)[C@H](Cc1c[nH]cn1)NC(=O)[C@H](Cc1c[nH]cn1)NC(=O)[C@H](CC(C)C)NC(=O)[C@H](Cc1ccccc1)NC(=O)[C@H](CCC(=O)O)NC(=O)[C@H](C)NC(=O)[C@H](CC(C)C)NC(=O)[C@H](CCCNC(=N)N)NC(=O)[C@H](CCC(N)=O)NC(=O)[C@@H](NC(=O)[C@H](C)NC(=O)[C@@H]1CSSC[C@H](NC(=O)[C@H](CCCCN)NC(=O)[C@H](CO)NC(=O)CC[C@H](NC(=O)CCCCCCCCCCCCCCCCCCC(=O)O)C(=O)O)C(=O)N[C@@H](CC(N)=O)C(=O)N[C@@H]([C@@H](C)O)C(=O)N[C@@H](C)C(=O)N[C@@H]([C@@H](C)O)C(=O)N1)[C@@H](C)O)C(=O)N[C@@H](CC(C)C)C(=O)N1CCC[C@H]1C(=O)N1CCC[C@H]1C(=O)N[C@H](C(=O)N[C@@H](CC(N)=O)C(=O)N[C@H](C(=O)NCC(=O)N[C@@H](CO)C(=O)N[C@@H](Cc1c[nH]cn1)C(=O)N[C@H](C(=O)N[C@@H](Cc1ccc(O)cc1)C(N)=O)[C@@H](C)O)C(C)C)[C@@H](C)O) [N-alpha-[(S)-4-Carboxy-4-(19-carboxynonadecanoylamino)butyryl]-Ser-[Glu14,His17,His35]-pramlintide]	0.133	0.153
{C20 diacid-γGlu}-KCNTATCATQRLAEFLVHSSNNFGPILPPTNVGSNTP-NH2 (disulfide 2-7; SMILES CC[C@H](C)[C@H](NC(=O)[C@@H]1CCCN1C(=O)CNC(=O)[C@H](Cc1ccccc1)NC(=O)[C@H](CC(N)=O)NC(=O)[C@H](CC(N)=O)NC(=O)[C@H](CO)NC(=O)[C@H](CO)NC(=O)[C@H](Cc1c[nH]cn1)NC(=O)[C@@H](NC(=O)[C@H](CC(C)C)NC(=O)[C@H](Cc1ccccc1)NC(=O)[C@H](CCC(=O)O)NC(=O)[C@H](C)NC(=O)[C@H](CC(C)C)NC(=O)[C@H](CCCNC(=N)N)NC(=O)[C@H](CCC(N)=O)NC(=O)[C@@H](NC(=O)[C@H](C)NC(=O)[C@@H]1CSSC[C@H](NC(=O)[C@H](CCCCN)NC(=O)CC[C@H](NC(=O)CCCCCCCCCCCCCCCCCCC(=O)O)C(=O)O)C(=O)N[C@@H](CC(N)=O)C(=O)N[C@@H]([C@@H](C)O)C(=O)N[C@@H](C)C(=O)N[C@@H]([C@@H](C)O)C(=O)N1)[C@@H](C)O)C(C)C)C(=O)N[C@@H](CC(C)C)C(=O)N1CCC[C@H]1C(=O)N1CCC[C@H]1C(=O)N[C@H](C(=O)N[C@@H](CC(N)=O)C(=O)N[C@H](C(=O)NCC(=O)N[C@@H](CO)C(=O)N[C@@H](CC(N)=O)C(=O)N[C@H](C(=O)N1CCC[C@H]1C(N)=O)[C@@H](C)O)C(C)C)[C@@H](C)O) [N-alpha-[(S)-4-Carboxy-4-(19-carboxynonadecanoylamino)butyryl]-[Glu14,Pro37]-pramlintide]	0.055	0.0525
X1-GCNTATCATQRLAEFLHHSSNNFGPILPPTNVGSNTP-NH2 (disulfide 2-7; SMILES CC[C@H](C)[C@H](NC(=O)[C@@H]1CCCN1C(=O)CNC(=O)[C@H](Cc1ccccc1)NC(=O)[C@H](CC(N)=O)NC(=O)[C@H](CC(N)=O)NC(=O)[C@H](CO)NC(=O)[C@H](CO)NC(=O)[C@H](Cc1c[nH]cn1)NC(=O)[C@H](Cc1c[nH]cn1)NC(=O)[C@H](CC(C)C)NC(=O)[C@H](Cc1ccccc1)NC(=O)[C@H](CCC(=O)O)NC(=O)[C@H](C)NC(=O)[C@H](CC(C)C)NC(=O)[C@H](CCCNC(=N)N)NC(=O)[C@H](CCC(N)=O)NC(=O)[C@@H](NC(=O)[C@H](C)NC(=O)[C@@H]1CSSC[C@H](NC(=O)CNC(=O)CC[C@H](NC(=O)CCCCCCCCCCCCCCCCCCC(=O)O)C(=O)O)C(=O)N[C@@H](CC(N)=O)C(=O)N[C@@H]([C@@H](C)O)C(=O)N[C@@H](C)C(=O)N[C@@H]([C@@H](C)O)C(=O)N1)[C@@H](C)O)C(=O)N[C@@H](CC(C)C)C(=O)N1CCC[C@H]1C(=O)N1CCC[C@H]1C(=O)N[C@H](C(=O)N[C@@H](CC(N)=O)C(=O)N[C@H](C(=O)NCC(=O)N[C@@H](CO)C(=O)N[C@@H](CC(N)=O)C(=O)N[C@H](C(=O)N1CCC[C@H]1C(N)=O)[C@@H](C)O)C(C)C)[C@@H](C)O) [N-alpha-[(S)-4-Carboxy-4-(19-carboxynonadecanoylamino)butyryl]-[Gly1,Glu14,His17,Pro37]-pramlintide]	0.054	0.052
{C20 diacid-γGlu}-GHCNTATCATQRLAEFLHHSSNNFGPILPPTNVGSNTP-NH2 (disulfide 3-8; SMILES CC[C@H](C)[C@H](NC(=O)[C@@H]1CCCN1C(=O)CNC(=O)[C@H](Cc1ccccc1)NC(=O)[C@H](CC(N)=O)NC(=O)[C@H](CC(N)=O)NC(=O)[C@H](CO)NC(=O)[C@H](CO)NC(=O)[C@H](Cc1c[nH]cn1)NC(=O)[C@H](Cc1c[nH]cn1)NC(=O)[C@H](CC(C)C)NC(=O)[C@H](Cc1ccccc1)NC(=O)[C@H](CCC(=O)O)NC(=O)[C@H](C)NC(=O)[C@H](CC(C)C)NC(=O)[C@H](CCCNC(=N)N)NC(=O)[C@H](CCC(N)=O)NC(=O)[C@@H](NC(=O)[C@H](C)NC(=O)[C@@H]1CSSC[C@H](NC(=O)[C@H](Cc2c[nH]cn2)NC(=O)CNC(=O)CC[C@H](NC(=O)CCCCCCCCCCCCCCCCCCC(=O)O)C(=O)O)C(=O)N[C@@H](CC(N)=O)C(=O)N[C@@H]([C@@H](C)O)C(=O)N[C@@H](C)C(=O)N[C@@H]([C@@H](C)O)C(=O)N1)[C@@H](C)O)C(=O)N[C@@H](CC(C)C)C(=O)N1CCC[C@H]1C(=O)N1CCC[C@H]1C(=O)N[C@H](C(=O)N[C@@H](CC(N)=O)C(=O)N[C@H](C(=O)NCC(=O)N[C@@H](CO)C(=O)N[C@@H](CC(N)=O)C(=O)N[C@H](C(=O)N1CCC[C@H]1C(N)=O)[C@@H](C)O)C(C)C)[C@@H](C)O)	0.052	0.049
K([γGlu-C18 diacid])CNTATCATQRLAEFLHHSSNNFGPILPPTNVGSHTY-NH2 (disulfide 2-7; N-terminus assumed; SMILES CC[C@H](C)[C@H](NC(=O)[C@@H]1CCCN1C(=O)CNC(=O)[C@H](Cc1ccccc1)NC(=O)[C@H](CC(N)=O)NC(=O)[C@H](CC(N)=O)NC(=O)[C@H](CO)NC(=O)[C@H](CO)NC(=O)[C@H](Cc1c[nH]cn1)NC(=O)[C@H](Cc1c[nH]cn1)NC(=O)[C@H](CC(C)C)NC(=O)[C@H](Cc1ccccc1)NC(=O)[C@H](CCC(=O)O)NC(=O)[C@H](C)NC(=O)[C@H](CC(C)C)NC(=O)[C@H](CCCNC(=N)N)NC(=O)[C@H](CCC(N)=O)NC(=O)[C@@H](NC(=O)[C@H](C)NC(=O)[C@@H]1CSSC[C@H](NC(=O)[C@@H](N)CCCCNC(=O)CC[C@H](NC(=O)CCCCCCCCCCCCCCCCC(=O)O)C(=O)O)C(=O)N[C@@H](CC(N)=O)C(=O)N[C@@H]([C@@H](C)O)C(=O)N[C@@H](C)C(=O)N[C@@H]([C@@H](C)O)C(=O)N1)[C@@H](C)O)C(=O)N[C@@H](CC(C)C)C(=O)N1CCC[C@H]1C(=O)N1CCC[C@H]1C(=O)N[C@H](C(=O)N[C@@H](CC(N)=O)C(=O)N[C@H](C(=O)NCC(=O)N[C@@H](CO)C(=O)N[C@@H](Cc1c[nH]cn1)C(=O)N[C@H](C(=O)N[C@@H](Cc1ccc(O)cc1)C(N)=O)[C@@H](C)O)C(C)C)[C@@H](C)O) [N-epsilon1-[(S)-4-Carboxy-4-(17-carboxyheptadecanoylamino)butyryl]-[Glu14,His17,His35]-pramlintide]	0.12	0.286
{C20 diacid-γGlu}-RCNTATCATQRLAEFLHHSSNNFGPILPPTNVGSHTY-NH2 (disulfide 2-7; SMILES CC[C@H](C)[C@H](NC(=O)[C@@H]1CCCN1C(=O)CNC(=O)[C@H](Cc1ccccc1)NC(=O)[C@H](CC(N)=O)NC(=O)[C@H](CC(N)=O)NC(=O)[C@H](CO)NC(=O)[C@H](CO)NC(=O)[C@H](Cc1c[nH]cn1)NC(=O)[C@H](Cc1c[nH]cn1)NC(=O)[C@H](CC(C)C)NC(=O)[C@H](Cc1ccccc1)NC(=O)[C@H](CCC(=O)O)NC(=O)[C@H](C)NC(=O)[C@H](CC(C)C)NC(=O)[C@H](CCCNC(=N)N)NC(=O)[C@H](CCC(N)=O)NC(=O)[C@@H](NC(=O)[C@H](C)NC(=O)[C@@H]1CSSC[C@H](NC(=O)[C@H](CCCNC(=N)N)NC(=O)CC[C@H](NC(=O)CCCCCCCCCCCCCCCCCCC(=O)O)C(=O)O)C(=O)N[C@@H](CC(N)=O)C(=O)N[C@@H]([C@@H](C)O)C(=O)N[C@@H](C)C(=O)N[C@@H]([C@@H](C)O)C(=O)N1)[C@@H](C)O)C(=O)N[C@@H](CC(C)C)C(=O)N1CCC[C@H]1C(=O)N1CCC[C@H]1C(=O)N[C@H](C(=O)N[C@@H](CC(N)=O)C(=O)N[C@H](C(=O)NCC(=O)N[C@@H](CO)C(=O)N[C@@H](Cc1c[nH]cn1)C(=O)N[C@H](C(=O)N[C@@H](Cc1ccc(O)cc1)C(N)=O)[C@@H](C)O)C(C)C)[C@@H](C)O) [N-alpha-[(S)-4-Carboxy-4-(19-carboxynonadecanoylamino)butyryl]-[Arg1,Glu14,His17,His35]-pramlintide]	0.082	0.175
